B1: ZNF263 (parent)
chain: LLRHQRIHTGERPYKCPECGKSFS

Variants of: B1
Assay: protein stability index of a GFP-peptide fusion (GPS, HEK-293T) (PSI 1-6); higher = more stable
Conditions: c terminus: a fixed tail appended
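Further: lentivirally expressed fusions sorted by FACS into six bins by GFP to DsRed ratio, PSI derived from sequencing read proportions per bin multiplied by bin number.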

Row | Variant | protein stability index
1 | LLRHQRIHTGERPYKCPECGKWFS | 2.09
2 | LLRHQRIHTGERPYKCPECGKIFS | 2.88
3 | LLRHQRIHTGERPYKCPECGKMFS | 2.05
4 | LLRHQRIHTGERPYKCPECGKAFS | 2.41
5 | LLRHQRIHTGERPYKCPECGKQFS | 2.5
6 | LLRHQRIHTGERPYKCPECGKGFS | 2.65
7 | LLRHQRIHTGERPYKCPECGKEFS | 1.88
8 | LLRHQRIHTGERPYKCPECGKLFS | 1.92
9 | LLRHQRIHTGERPYKCPECGKHFS | 2.29
10 | LLRHQRIHTGERPYKCPECGKVFS | 2.98
11 | LLRHQRIHTGERPYKCPECGKPFS | 2.36
12 | LLRHQRIHTGERPYKCPECGKFFS | 2.2
13 | LLRHQRIHTGERPYKCPECGKYFS | 2.38
14 | LLRHQRIHTGERPYKCPECGKKFS | 2.35
15 | LLRHQRIHTGERPYKCPECGKTFS | 2.23
16 | LLRHQRIHTGERPYKCPECGKNFS | 1.4
17 | LLRHQRIHTGERPYKCPECGKDFS | 1.63
18 | LLRHQRIHTGERPYKCPECGKCFS | 2.37
19 | LLRHQRIHTGERPYKCPECGKRFS | 2.4
20 | LLRHQRIHTGERPYKCPECGKSDS | 3.13
21 | LLRHQRIHTGERPYKCPECGKSHS | 3.64
22 | LLRHQRIHTGERPYKCPECGKSWS | 1.84
23 | LLRHQRIHTGERPYKCPECGKSYS | 2.79
24 | LLRHQRIHTGERPYKCPECGKSTS | 2.59
25 | LLRHQRIHTGERPYKCPECGKSIS | 2.51

Row | Variant | protein stability index
26 | LLRHQRIHTGERPYKCPECGKSCS | 3.29
27 | LLRHQRIHTGERPYKCPECGKSMS | 1.99
28 | LLRHQRIHTGERPYKCPECGKSNS | 2.68
29 | LLRHQRIHTGERPYKCPECGKSGS | 2.75
30 | LLRHQRIHTGERPYKCPECGKSES | 2.38
31 | LLRHQRIHTGERPYKCPECGKSQS | 3.71
32 | LLRHQRIHTGERPYKCPECGKSAS | 2.87
33 | LLRHQRIHTGERPYKCPECGKSVS | 2.53
34 | LLRHQRIHTGERPYKCPECGKSRS | 1.93
35 | LLRHQRIHTGERPYKCPECGKSKS | 2.83
36 | LLRHQRIHTGERPYKCPECGKSLS | 2.14
37 | LLRHQRIHTGERPYKCPECGKSSS | 2.25
38 | LLRHQRIHTGERPYKCPECGKSPS | 3.39
39 | LLRHQRIHTGERPYKCLECGKSFS | 1.91
40 | LLRHQRIHTGERPYKCSECGKSFS | 1.66
41 | LLRHQRIHTGERPYKCCECGKSFS | 2
42 | LLRHQRIHTGERPYKCRECGKSFS | 2.6
43 | LLRHQRIHTGERPYKCWECGKSFS | 1.74
44 | LLRHQRIHTGERPYKCHECGKSFS | 1.8
45 | LLRHQRIHTGERPYKCNECGKSFS | 2.39
46 | LLRHQRIHTGERPYKCIECGKSFS | 2.6
47 | LLRHQRIHTGERPYKCFECGKSFS | 1.94
48 | LLRHQRIHTGERPYKCQECGKSFS | 2.78
49 | LLRHQRIHTGERPYKCMECGKSFS | 1.83
50 | LLRHQRIHTGERPYKCGECGKSFS | 2.88

Row | Variant | protein stability index
51 | LLRHQRIHTGERPYKCDECGKSFS | 2.19
52 | LLRHQRIHTGERPYKCEECGKSFS | 2.26
53 | LLRHQRIHTGERPYKCYECGKSFS | 1.39
54 | LLRHQRIHTGERPYKCTECGKSFS | 2.38
55 | LLRHQRIHTGERPYKCKECGKSFS | 2.15
56 | LLRHQRIHTGERPYKCVECGKSFS | 2.05
57 | LLRHQRIHTGERPYKCPEVGKSFS | 3.08
58 | LLRHQRIHTGERPYKCPEMGKSFS | 2.07
59 | LLRHQRIHTGERPYKCPEFGKSFS | 2.12
60 | LLRHQRIHTGERPYKCPEKGKSFS | 3.08
61 | LLRHQRIHTGERPYKCPEIGKSFS | 1.81
62 | LLRHQRIHTGERPYKCPETGKSFS | 3.42
63 | LLRHQRIHTGERPYKCPEYGKSFS | 2.45
64 | LLRHQRIHTGERPYKCPELGKSFS | 2.15
65 | LLRHQRIHTGERPYKCPESGKSFS | 2.45
66 | LLRHQRIHTGERPYKCPEDGKSFS | 3.28
67 | LLRHQRIHTGERPYKCPERGKSFS | 3.57
68 | LLRHQRIHTGERPYKCPEGGKSFS | 3.3
69 | LLRHQRIHTGERPYKCPEEGKSFS | 3.31
70 | LLRHQRIHTGERPYKCPEPGKSFS | 2.87
71 | LLRHQRIHTGERPYKCPEQGKSFS | 3.3
72 | LLRHQRIHTGERPYKCPEHGKSFS | 3.21
73 | LLRHQRIHTGERPYKCPEWGKSFS | 1.66
74 | LLRHQRIHTGERPYKCPEAGKSFS | 3.18
75 | LLRHQRIHTGERPYKCPSCGKSFS | 2.25

Row | Variant | protein stability index
76 | LLRHQRIHTGERPYKCPHCGKSFS | 2.5
77 | LLRHQRIHTGERPYKCPFCGKSFS | 2.48
78 | LLRHQRIHTGERPYKCPGCGKSFS | 2.3
79 | LLRHQRIHTGERPYKCPWCGKSFS | 3.24
80 | LLRHQRIHTGERPYKCPQCGKSFS | 2.41
81 | LLRHQRIHTGERPYKCPICGKSFS | 2.42
82 | LLRHQRIHTGERPYKCPLCGKSFS | 2.24
83 | LLRHQRIHTGERPYKCPPCGKSFS | 2.37
84 | LLRHQRIHTGERPYKCPNCGKSFS | 2.24
85 | LLRHQRIHTGERPYKCPVCGKSFS | 2.15
86 | LLRHQRIHTGERPYKCPYCGKSFS | 3.02
87 | LLRHQRIHTGERPYKCPCCGKSFS | 1.86
88 | LLRHQRIHTGERPYKCPACGKSFS | 2.25
89 | LLRHQRIHTGERPYKCPKCGKSFS | 2.64
90 | LLRHQRIHTGERPYKCPTCGKSFS | 2.25
91 | LLRHQRIHTGERPYKCPMCGKSFS | 2.46
92 | LLRHQRIHTGERPYKCPRCGKSFS | 2.41
93 | LLRHQRIHTGERPYKCPDCGKSFS | 1.96
94 | LLRHQRIHTGERPYKCPECQKSFS | 1.86
95 | LLRHQRIHTGERPYKCPECSKSFS | 1.95
96 | LLRHQRIHTGERPYKCPECPKSFS | 1.88
97 | LLRHQRIHTGERPYKCPECEKSFS | 1.66
98 | LLRHQRIHTGERPYKCPECTKSFS | 2.17
99 | LLRHQRIHTGERPYKCPECHKSFS | 2.21
100 | LLRHQRIHTGERPYKCPECVKSFS | 2.42

Row | Variant | protein stability index
101 | LLRHQRIHTGERPYKCPECWKSFS | 1.46
102 | LLRHQRIHTGERPYKCPECKKSFS | 2.27
103 | LLRHQRIHTGERPYKCPECLKSFS | 1.66
104 | LLRHQRIHTGERPYKCPECCKSFS | 1.87
105 | LLRHQRIHTGERPYKCPECAKSFS | 2.05
106 | LLRHQRIHTGERPYKCPECDKSFS | 2.52
107 | LLRHQRIHTGERPYKCPECIKSFS | 1.75
108 | LLRHQRIHTGERPYKCPECMKSFS | 2.13
109 | LLRHQRIHTGERPYKCPECYKSFS | 1.76
110 | LLRHQRIHTGERPYKCPECNKSFS | 2.35
111 | LLRHQRIHTGERPYKCPECRKSFS | 1.79
112 | LLRHQRIHTGERPYKCPECFKSFS | 2.99
113 | LLRHQRIHTGERPYKCPECGKSFQ | 3.11
114 | LLRHQRIHTGERPYKCPECGKSFP | 2.24
115 | LLRHQRIHTGERPYKCPECGKSFA | 1.92
116 | LLRHQRIHTGERPYKCPECGKSFD | 2.36
117 | LLRHQRIHTGERPYKCPECGKSFG | 3.65
118 | LLRHQRIHTGERPYKCPECGKSFV | 2.62
119 | LLRHQRIHTGERPYKCPECGKSFE | 1.88
120 | LLRHQRIHTGERPYKCPECGKSFW | 2.59
121 | LLRHQRIHTGERPYKCPECGKSFK | 2.07
122 | LLRHQRIHTGERPYKCPECGKSFR | 1.94
123 | LLRHQRIHTGERPYKCPECGKSFI | 2.11
124 | LLRHQRIHTGERPYKCPECGKSFC | 3.14
125 | LLRHQRIHTGERPYKCPECGKSFN | 2.34

Row | Variant | protein stability index
126 | LLRHQRIHTGERPYKCPECGKSFF | 2.01
127 | LLRHQRIHTGERPYKCPECGKSFM | 2.28
128 | LLRHQRIHTGERPYKCPECGKSFY | 2.25
129 | LLRHQRIHTGERPYKCPECGKSFT | 2.08
130 | LLRHQRIHTGERPYKCPECGKSFL | 2.43
131 | LLRHQRIHTGERPYKCPECGKSFH | 2.12
132 | LLRHQRIHTGERPYKCPECGYSFS | 2.19
133 | LLRHQRIHTGERPYKCPECGASFS | 2.93
134 | LLRHQRIHTGERPYKCPECGISFS | 1.68
135 | LLRHQRIHTGERPYKCPECGRSFS | 2.01
136 | LLRHQRIHTGERPYKCPECGSSFS | 1.84
137 | LLRHQRIHTGERPYKCPECGQSFS | 2.75
138 | LLRHQRIHTGERPYKCPECGHSFS | 2.82
139 | LLRHQRIHTGERPYKCPECGTSFS | 2.16
140 | LLRHQRIHTGERPYKCPECGDSFS | 2.38
141 | LLRHQRIHTGERPYKCPECGMSFS | 1.59
142 | LLRHQRIHTGERPYKCPECGNSFS | 2.05
143 | LLRHQRIHTGERPYKCPECGCSFS | 2.11
144 | LLRHQRIHTGERPYKCPECGGSFS | 1.83
145 | LLRHQRIHTGERPYKCPECGESFS | 2.53
146 | LLRHQRIHTGERPYKCPECGPSFS | 2.61
147 | LLRHQRIHTGERPYKCPECGLSFS | 2.77
148 | LLRHQRIHTGERPYKCPECGVSFS | 1.91
149 | LLRHQRIHTGERPYKCPECGFSFS | 1.82
